Measurements from PMC3771946.

Legend:
Assay in all cases: co-IP
[1] = target: Cx43-F268A+Y286H-GFP (S2+3) (rat) (UniProt P08050)
[2] = target: Cx43-Y230H+F268A+Y286H-GFP (S1+2+3) (rat) (UniProt P08050)
[3] = target: Cx43-Y230H+ΔY265AY+ΔP283PGYKLV-GFP (S1+2+3) (rat) (UniProt P08050)
[4] = target: Cx43-ΔY265AY+ΔP283PGYKLV-GFP (S2+3) (rat) (UniProt P08050)
[5] = target: untagged Cx43-F268A+Y286H (S2+3) (rat) (UniProt P08050)
[6] = target: untagged Cx43-Y230H+F268A+Y286H (S1+2+3) (rat) (UniProt P08050)
[7] = target: untagged Cx43-Y230H+ΔY265AY+ΔP283PGYKLV (S1+2+3) (rat) (UniProt P08050)
[8] = target: untagged Cx43-ΔY265AY+ΔP283PGYKLV (S2+3) (rat) (UniProt P08050)

amount coprecipitated, % of wild type, with m16 (% of wild type) [1]: < 10
amount coprecipitated, % of wild type, with m16 (% of wild type) [2]: < 10
amount coprecipitated, % of wild type, with m16 (% of wild type) [3]: < 10
amount coprecipitated, % of wild type, with m16 (% of wild type) [4]: < 10
amount coprecipitated, % of wild type, with m16 (% of wild type) [5]: < 10
amount coprecipitated, % of wild type, with m16 (% of wild type) [6]: < 10
amount coprecipitated, % of wild type, with m16 (% of wild type) [7]: < 10
amount coprecipitated, % of wild type, with m16 (% of wild type) [8]: < 10
Substance: clathrin (from UniProt Q00610 1-1675) (complex)
